Data reported in PMC6753332.

Target: neuropilin-1 (NRP1), wildtype, expressed on BW cells (human) (UniProt O14786)
Assay: flow cytometry on cells; saturation: BW NRP1 cells with increasing concentrations of monomeric rh-C4Ad, detected with monoclonal C4d antibody and PE goat anti-mouse IgG; Langmuir isotherm for single-class 1:1 binding; apparent KD

Kd: 710 nM
Substance: recombinant human C4Ad (rh-C4Ad) (domain or fragment)
